Reference: publication PMC2806920

How the values were obtained:
[1] = target: Truncated recombinant LRRK2 wild-type (aa 970-2527) (human) (UniProt Q5S007)
[2] = target: Truncated recombinant LRRK2-G2019S (aa 970-2527) (human) (UniProt Q5S007)

- Km for 4E-BP of its phosphorylation by LRRK2 (in vitro kinase assay, 33P incorporation, 12 nM LRRK2, 1.5-12 µM 4E-BP, Michaelis-Menten fit) [1]: 2.69 µM
- Km for 4E-BP of its phosphorylation by LRRK2-G2019S (in vitro kinase assay, 33P incorporation, 12 nM LRRK2, 1.5-12 µM 4E-BP, Michaelis-Menten fit) [2]: 2.87 µM
Substance: 4E-BP (eukaryotic initiation factor 4E (eIF4E)-binding protein), His6-tagged 4E-BP1 (from UniProt Q13541 1-118) (natural protein)
